{"source": "paper PMC11673460", "molecular_target": "cobalamin binding domain of CarH from Thermus thermophilus (Thermus thermophilus)", "data": [{"substance": "cobalamin binding domain of CarH from Thermus thermophilus (domain or fragment)", "values": [{"measurement": "aggregation ratio (area of bacteria in aggregates/total area occupied by all bacteria) of E. coli MG1655 displaying CarH (CarH‐eCPX), with AdoB12Cy5, in the dark", "result": 50, "unit": "%"}, {"measurement": "aggregation ratio of CarH‐displaying E. coli with AdoB12Cy5 under green or red light (aggregates not separated by far‐red light)", "result": "< 20", "unit": "%"}, {"measurement": "aggregation ratio of CarH‐displaying E. coli with AdoB12Cy7.5 under green, red or far‐red light", "result": "< 20", "unit": "%"}, {"measurement": "aggregation ratio of CarH‐displaying E. coli with AdoB12 under green light (aggregates stable under red and far‐red light)", "result": "< 20", "unit": "%"}, {"measurement": "aggregation ratio of E. coli MG1655 displaying CarH (CarH‐eCPX), with AdoB12, in the dark", "result": 50, "unit": "%"}, {"measurement": "aggregation ratio of E. coli MG1655 displaying CarH (CarH‐eCPX), with AdoB12Cy7.5, in the dark", "result": 50, "unit": "%"}]}]}
